Test results from the supplement of paper PMC7125110.
± gives the standard error. For some of these results: Fewer inactive variants are shown than the library holds.

B1: glmS ribozyme (parent)
chain: AUAAAAGCGCCAGAACUACAGAAAUGUAGUUGACGAGGAGGAGGUUUAUCGAAUUUUCGGCGGAUGCCUCCAAA

Experiments:
Conditions in all cases: with glucosamine-6-phosphate
glucosamine-6-phosphate [1] = variants of: B1; test: kcat; higher = faster cleavage; RNA array
Method in brief: (§1)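 kcat and KM were obtained from weighted Michaelis–Menten fits across concentrations of kobs values. Those came from one- or two-exponential decay fits to per-tile medians normalised to baseline and to non-cleaving reference variants. The variants were barcoded ribozymes transcribed in situ by E. coli RNA polymerase on sequenced MiSeq chips and tracked through a hybridised Cy3 probe at 37 °C, with 40 μM to 10 mM glucosamine-6-phosphate in HEPES/KCl/Mg(OAc)2 buffer flowed in.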

glucosamine-6-phosphate [2] = variants of: B1; test: KM; higher = weaker cofactor use; RNA array
Method in brief: as §1

glucosamine-6-phosphate [3] = variants of: B1; test: self-cleavage kobs at 640 uM GlcN6P; higher = faster cleavage; RNA array
Method in brief: as §1

glucosamine-6-phosphate [4] = variants of: B1; test: self-cleavage kobs at 2500 uM GlcN6P; higher = faster cleavage; RNA array
Method in brief: as §1

glucosamine-6-phosphate [5] = variants of: B1; test: self-cleavage kobs at 10000 uM GlcN6P; higher = faster cleavage; RNA array
Method in brief: as §1

glucosamine-6-phosphate [6] = variants of: B1; test: self-cleavage kobs at 40 uM GlcN6P; higher = faster cleavage; RNA array
Method in brief: as §1

glucosamine-6-phosphate [7] = variants of: B1; test: self-cleavage kobs at 160 uM GlcN6P; higher = faster cleavage; RNA array
Method in brief: as §1

Variant	kcat (glucosamine-6-phosphate [1])	KM (glucosamine-6-phosphate [2])	self-cleavage kobs at 640 uM GlcN6P (glucosamine-6-phosphate [3])	self-cleavage kobs at 2500 uM GlcN6P (glucosamine-6-phosphate [4])	self-cleavage kobs at 10000 uM GlcN6P (glucosamine-6-phosphate [5])	self-cleavage kobs at 40 uM GlcN6P (glucosamine-6-phosphate [6])	self-cleavage kobs at 160 uM GlcN6P (glucosamine-6-phosphate [7])
C11U G40U	0.000224 ± 2.2e-05 s⁻¹	3980 ± 910 µM	2.87e-05 ± 7.5e-06 s⁻¹	0.000111 ± 3.6e-05 s⁻¹	0.000159 ± 1.6e-05 s⁻¹	–	–
G63C C71G	< 1e-05 s⁻¹	222 ± 79 µM	< 1e-05 s⁻¹	–	< 1e-05 s⁻¹	< 1e-05 s⁻¹	< 1e-05 s⁻¹
C16G G40U	0.00053 ± 2.1e-05 s⁻¹	4960 ± 340 µM	6.22e-05 ± 1.1e-05 s⁻¹	0.000171 ± 2.7e-05 s⁻¹	0.000357 ± 4.2e-05 s⁻¹	–	–
A53G U65A C67A	0.000109 ± 1.9e-05 s⁻¹	–	0.000153 ± 3.7e-05 s⁻¹	0.000112 ± 2.9e-05 s⁻¹	9.28e-05 ± 2.4e-05 s⁻¹	–	8.41e-05 ± 2.3e-05 s⁻¹
A48U U57C U69G C70U	< 1e-05 s⁻¹	–	–	–	–	–	–
G9C G38C C67A U69C	< 1e-05 s⁻¹	–	–	–	–	–	–
A14U	0.0182 ± 0.0048 s⁻¹	2730 ± 850 µM	0.00328 ± 0.00015 s⁻¹	0.00942 ± 0.00041 s⁻¹	0.0143 ± 0.00047 s⁻¹	0.000298 ± 5.5e-06 s⁻¹	0.00073 ± 3e-05 s⁻¹
U47G	0.0175 ± 0.00086 s⁻¹	2130 ± 130 µM	0.00389 ± 0.00017 s⁻¹	0.00997 ± 0.00041 s⁻¹	0.0142 ± 0.00058 s⁻¹	0.000326 ± 7.1e-06 s⁻¹	0.00112 ± 9.8e-05 s⁻¹
A12U U46G	0.023 ± 0.007 s⁻¹	2700 ± 1100 µM	0.00656 ± 0.0018 s⁻¹	0.0119 ± 0.0035 s⁻¹	0.0167 ± 0.0047 s⁻¹	0.000297 ± 7.2e-05 s⁻¹	–
A15C U47C C71U	0.000301 ± 5.9e-06 s⁻¹	867 ± 47 µM	0.000129 ± 2.7e-05 s⁻¹	0.000228 ± 4.9e-05 s⁻¹	0.000275 ± 4.5e-05 s⁻¹	–	–
G13A U45A	0.00257 ± 0.00041 s⁻¹	6910 ± 1400 µM	0.000237 ± 3.3e-05 s⁻¹	0.000649 ± 0.00012 s⁻¹	0.00152 ± 0.00022 s⁻¹	–	5.26e-05 ± 9.7e-06 s⁻¹
C16G G59A	1.51e-05 ± 3.3e-06 s⁻¹	–	–	–	–	–	–
G32U U69A	9.32e-05 ± 6.2e-06 s⁻¹	142 ± 64 µM	8.92e-05 ± 1.9e-05 s⁻¹	9.1e-05 ± 1.4e-05 s⁻¹	8.84e-05 ± 1.1e-05 s⁻¹	–	–
A6G U69G	1.01e-05 ± 1.6e-06 s⁻¹	–	–	–	–	< 1e-05 s⁻¹	–
A14C U30C A53G	1.63e-05 ± 3.1e-06 s⁻¹	–	–	–	–	–	–
A53C C67U	0.00119 ± 0.00012 s⁻¹	1500 ± 230 µM	0.000355 ± 3.8e-05 s⁻¹	0.000692 ± 8.1e-05 s⁻¹	0.00108 ± 0.00011 s⁻¹	4e-05 ± 6.8e-06 s⁻¹	0.000109 ± 1e-05 s⁻¹
U56C U65G	0.000503 ± 9.7e-05 s⁻¹	–	–	0.000206 ± 7.7e-05 s⁻¹	0.00041 ± 8.6e-05 s⁻¹	–	–
